Measured values taken from paper PMC4618406.

Tests used:
[1] = ThT fluorescence of gT72/unmodified mixtures, 50 μM total; details: glycan gained, control: unmodified α-synuclein
[2] = TEM of fibers from mixtures; details: glycan gained; control: unmodified α-synuclein, 50 μM

Substance	other: fibril aggregation [1]	structure_or_conformation [2]
α-synuclein: 10% α-synuclein(gT72)	decreases	–
α-synuclein: 10-50% α-synuclein(gT72) mixtures	–	no change
α-synuclein: 25% α-synuclein(gT72)	decreases	–
α-synuclein: 50% α-synuclein(gT72)	decreases	–
